Patent EP2275116A1

Biological target: human p21-activated kinase 1 (PAK1) (human) (UniProt Q13153)
Assay: cell-based or functional assay

UniProt Q13153, sequence (Q13153 whole entry R237L/F379S, form in doubt): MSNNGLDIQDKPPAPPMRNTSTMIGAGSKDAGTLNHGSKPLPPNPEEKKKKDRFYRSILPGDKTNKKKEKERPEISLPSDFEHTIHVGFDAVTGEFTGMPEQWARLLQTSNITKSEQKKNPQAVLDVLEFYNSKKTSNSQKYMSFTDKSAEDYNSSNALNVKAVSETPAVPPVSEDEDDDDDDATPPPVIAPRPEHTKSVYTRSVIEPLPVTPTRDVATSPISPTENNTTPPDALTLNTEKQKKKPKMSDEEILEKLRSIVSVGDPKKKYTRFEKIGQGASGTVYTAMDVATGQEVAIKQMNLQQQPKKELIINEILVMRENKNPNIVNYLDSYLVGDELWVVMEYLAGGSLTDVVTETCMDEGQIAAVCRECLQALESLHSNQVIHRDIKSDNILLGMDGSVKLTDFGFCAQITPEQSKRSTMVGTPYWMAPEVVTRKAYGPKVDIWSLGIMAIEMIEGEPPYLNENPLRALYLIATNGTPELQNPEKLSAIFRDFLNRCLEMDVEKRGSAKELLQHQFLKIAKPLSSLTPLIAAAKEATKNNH

HA-tagged PAK1 inhibitory domain (PAK1 residues 83 to 149) (from UniProt P35465 83-149)
inhibition of IL-1β induced expression of PGE2 in SW1353 cells (ELISA of supernatant): > 50% | inhibition of IL-1β-induced expression of MMP13 in SW1353 cells (ELISA of supernatant): 55% | inhibition of basal MMP13 expression in non-stimulated SW1353 cells (ELISA of supernatant): > 80%
